Data on two molecules can be found in patent US20260265396A1 (BIOARCTIC, published 2026).

Test [1] concerns the target T1, human TfR1, recombinant, construct not stated for the experiment (human, UniProt P02786 89-760, limits assumed).
T1 construct: Biotinylated in the binning and scFv-Fc BLI experiments; also called hTfR1; biotinylated hTfR1
As to the kind of experiment: indirect ELISA, plate coated with 1 ug/ml recombinant hTfR1 ectodomain, Fab 1:3 dilution series, anti-human IgG F(ab')2-HRP [lower panel hTfR1].

The target of test [2] is T2, chimeric TfR1 consisting of human apical domain grafted on mouse TfR1 ectodomain (SEQ ID NO:57) (human/mouse chimera).
T2 construct: His-tagged ELISA coat; also called h/m apical domain chimera
T2 chain: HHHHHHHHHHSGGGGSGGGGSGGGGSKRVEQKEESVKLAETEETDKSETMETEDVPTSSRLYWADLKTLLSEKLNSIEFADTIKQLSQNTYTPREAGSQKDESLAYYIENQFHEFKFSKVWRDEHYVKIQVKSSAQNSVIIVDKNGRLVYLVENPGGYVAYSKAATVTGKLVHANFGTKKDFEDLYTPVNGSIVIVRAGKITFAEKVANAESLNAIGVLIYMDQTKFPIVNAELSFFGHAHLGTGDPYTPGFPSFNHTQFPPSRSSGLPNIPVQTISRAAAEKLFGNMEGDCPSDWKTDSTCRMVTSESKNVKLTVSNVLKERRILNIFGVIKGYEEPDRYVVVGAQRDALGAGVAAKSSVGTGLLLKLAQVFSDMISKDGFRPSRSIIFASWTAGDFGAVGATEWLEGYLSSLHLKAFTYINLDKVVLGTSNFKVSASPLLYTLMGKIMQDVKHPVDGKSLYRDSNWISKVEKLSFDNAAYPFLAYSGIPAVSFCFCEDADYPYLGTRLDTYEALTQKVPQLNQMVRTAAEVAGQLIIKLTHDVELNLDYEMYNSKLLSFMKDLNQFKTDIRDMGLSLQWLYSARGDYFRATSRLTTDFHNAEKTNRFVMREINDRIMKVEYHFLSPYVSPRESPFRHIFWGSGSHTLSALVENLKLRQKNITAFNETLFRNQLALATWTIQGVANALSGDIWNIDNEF
In words: indirect ELISA, plate coated with 1 ug/ml h/m apical domain chimera (axis labelled TfR (ng/ml)) [C]. Here is the method: The coated plates were then blocked. Dilution series of mouse IgG of the analyzed antibodies were prepared in PBS and incubated on the ELISA plates. Unbound antibodies were then washed off before incubating wells with a HRP-conjugated secondary, anti-mouse-IgG for 1 h. Plates were then washed again before addition of HRP substrate TMB for development and detection of antibody binding to the wells. TMB development was stopped by adding 0.5 M H₂SO₄ to the wells and ELISA responses measured as the OD at 450 nm in an ELISA plate reader.

T1 sequence (P02786 89-760 limits assumed): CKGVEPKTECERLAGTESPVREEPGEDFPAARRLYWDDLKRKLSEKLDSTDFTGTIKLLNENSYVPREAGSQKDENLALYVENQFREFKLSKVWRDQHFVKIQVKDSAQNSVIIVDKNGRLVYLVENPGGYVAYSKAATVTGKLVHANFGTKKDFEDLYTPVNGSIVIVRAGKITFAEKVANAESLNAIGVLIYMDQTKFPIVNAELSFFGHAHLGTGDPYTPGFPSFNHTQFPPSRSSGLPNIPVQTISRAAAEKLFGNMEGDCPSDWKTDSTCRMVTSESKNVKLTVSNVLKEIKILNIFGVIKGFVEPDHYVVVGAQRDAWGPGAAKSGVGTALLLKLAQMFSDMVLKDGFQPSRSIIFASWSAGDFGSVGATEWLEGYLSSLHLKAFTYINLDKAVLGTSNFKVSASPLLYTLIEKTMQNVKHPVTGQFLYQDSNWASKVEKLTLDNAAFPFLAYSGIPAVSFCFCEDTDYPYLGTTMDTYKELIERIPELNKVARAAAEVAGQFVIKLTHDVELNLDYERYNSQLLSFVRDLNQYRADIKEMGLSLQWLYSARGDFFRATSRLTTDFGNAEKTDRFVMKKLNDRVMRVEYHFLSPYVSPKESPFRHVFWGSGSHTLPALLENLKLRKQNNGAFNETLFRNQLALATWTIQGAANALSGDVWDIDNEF

B1: h26D3 Fab (humanized 26D3) (Fab, V domains shown)
VH: EVQLVQSGAEVKKPGSSVKVSCKASGYIFTDYNMDWVRQAPGQGLEWIGDINPDYDTTSYNEKFKGRATLTVDKSTSTAYMELSSLRSEDTAVYYCARGGYSGSSYYHPMDYWGQGTLVTVSS
VL: DIQMTQSPSSVSASVGDRVTITCKSSQSLLYSTNQKNYLAWYQQKPGKAPKLLIYWASTRESGVPSRFSGSGSGTDFTLTISSLQPEDFATYYCQQYFIYPRTFGQGTKVEIK
notes: His-tagged Fab from ExpiCHO cells
With B1, the “EC50 (read off the curve)” value in test [1] is roughly 500 nM.

B2: mouse monoclonal antibody 26D3 (antibody, mouse IgG2a, V domains shown)
VH: EVQLQQFGVELVKPGASVKISCKASGYIFTDYNMDWVKQSHGKSLEWIGDINPDYDTTSYNEKFKGKATLTVDKSSSTAYMELRSLTSEDTAVYYCARGGYSGSSYYHPMDYWGQGTSVTVSS
VL: DIVMSQSPSSLAVSVGEKITMSCKSSQSLLYSTNQKNYLAWYQQKPGQSPELLIYWASTRESGVPDRFTGSGSGTDFTLTISNVRAEDLAVYYCQQYFIYPRTFGGGTKLEIK
Turning to B2, in test [2], the binding result is recorded as “no binding (tested: about 650 ng/ml)”.
